Test results as given in publication PMC3423377 (2012).

Molecular target: ML/HLA-A2 pMHC, soluble recombinant (human | )
Experiment: SPR

- koff: 0.016 s⁻¹
B1: fML soluble recombinant Fab (Fab, V domains shown)
VH: EVQLVESGGGLVQPGGSLRLSCAASGFNFSYYSIHWVRQAPGKGLEWVASIYSSSSYTSYADSVKGRFTISADTSKNTAYLQMNSLRAEDTAVYYCARGYYGEWGMDYWGQGTLVTVSS
VL: DIQMTQSPSSLSASVGDRVTITCRASQSVSSAVAWYQQKPGKAPKLLIYSASSLYSGVPSRFSGSRSGTDFTLTISSLQPEDFATYYCQQWNAYPVTFGQGTKVEIK
